Measurements published in patent US20050176073A1, “Cell proliferation associated with CCX CKR expression” (ChemoCentryx, Inc., priority 2004, published 2005).
Blank lines part the entries; values can stand above or below the molecule they belong to.

Legend:
CCX CKR [1] = molecular target: T1, CCX CKR (Homo sapiens, UniProt Q9NPB9); assay: Small molecule modulators of CCX CKR function
T1 sequence (Q9NPB9 1-350): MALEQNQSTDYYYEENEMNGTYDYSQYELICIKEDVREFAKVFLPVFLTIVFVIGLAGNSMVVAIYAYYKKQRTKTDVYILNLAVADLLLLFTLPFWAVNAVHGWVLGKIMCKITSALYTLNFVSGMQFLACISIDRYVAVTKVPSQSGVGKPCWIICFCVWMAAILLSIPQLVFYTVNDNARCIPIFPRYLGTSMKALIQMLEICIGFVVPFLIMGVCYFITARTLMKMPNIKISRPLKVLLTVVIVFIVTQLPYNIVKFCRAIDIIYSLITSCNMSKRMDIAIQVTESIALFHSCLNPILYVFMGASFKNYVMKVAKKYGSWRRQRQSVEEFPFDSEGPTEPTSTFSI
Text: Other compounds are based upon agonists and antagonists for CCX CKR, which have been identified and are shown below: […]

[2] = test system: HEK293 cells transfected with CCX CKR; assay: PowerBlot protein expression analysis, HEK293 cells transfected with CCX CKR; format: cell-based, human; conditions: relative to cells simply transformed with CCX CKR; FIG. 2
Protocol: (§1) Studies were also conducted to assess what effect CCX CKR activity had on protein expression. This was analyzed by determining protein levels for both unstransfected HEK293 cells, and HEK293 cells transfected with CCX CKR, grown both in the presence and absence of the ligands ELC, SLC or TECK. Protein levels were determined using the BD PowerBlot™ technology developed by Becton Dickinson, and available from BD Biosciences Pharmingen. In general, this analysis involves separating proteins in cellular lysates by polyacrylamide electrophoresis and then conducting a Western blot with over 1,000 monoclonal antibodies specific for certain proteins. Antibodies that bind to a protein band on the gel are visualized using a digital camera that detects chemiluminescence from the bound antibody. The amount of protein can be determined based upon the strength of the signal. Further details regarding the application of this technology are discussed by Lorenz, P., et al. Proteomics (2003) 3:991-1002; Malakhov, M. P., et al. (2003) J. Biol. Chem. .278:16608-13; and Yoo, G. H., et al. (2002) Clin Cancer Res. 8:3910-21.
(§2) FIG. 2 provides a chart that provides a comparison of the number of proteins that were increased and decreased under different sets of conditions.

[3] = test system: untransfected HEK293 cells; assay: PowerBlot protein expression analysis, untransfected HEK293 cells; format: cell-based, human; conditions: untransfected HEK293 cells contacted with ligand; FIG. 2
Protocol: as §1, §2

CCX CKR [4] = molecular target: T1, CCX CKR; conditions: WO 01/27146; cited from earlier work
[5] = test system: HEK293 cells transfected with CCX CKR; assay: Cell growth curves (hemacytometer counting) of HEK293 cells transfected with CCX CKR; format: cell-based, human; conditions: ligand in growth medium, growth curves over 6 days; FIG. 4
Protocol: Another set of experiments were conducted to ascertain whether CCX CKR plays a role in cell growth. One experiment involved culturing (1) untransfected HEK293 cells (ATCC #CRL 1573) (control), (2) HEK 293 cells transfected with CCX CKR as a polyclonal mixture, and (3) three different clones of HEK293 stably transfected with CCX CKR, thus giving a total of […] different cell cultures. Each of these cultures were obtained by seeding 50,000 cells/well in triplicate. The three different clones (clones 9, 12 and 13) were obtained by a limited dilution of the polyclonal mixture of cells.
Cells were allowed to attach for 12 hours in growth medium (Dulbecco's minimal essential medium with 10% fetal bovine serum), then cultured in the absence of fetal bovine serum for 12 hours to synchronize the cell cycle. Growth medium was then added back to cells, and plates returned to the incubator. Each day for 6 days, cells were removed with trypsin and counted with a hemacytometer.
Another set of experiments were conducted using the same procedure just described to address two issues: (1) whether the autoactive response observed in the first set of experiments was simply a consequence of the transformation process, and (2) to determine what effect ligands had on the ability of CCX CKR to promote cellular growth. […]

Modulation of CCX CKR function (agonist or antagonist) (CCX CKR [1]): Compound I (antagonist)
Molecule: CC1CCCCN1CCCN(Cc1ccc(OCc2ccccc2)cc1)C(=O)Nc1ccc(Cl)c(Cl)c1 (centres unmarked) [Compound I]

Modulation of CCX CKR function (agonist or antagonist) (CCX CKR [1]): Compound II (antagonist)
Molecule: CC1CCCCN1CCCN(Cc1ccc(OCc2ccccc2)cc1)C(=O)NC12CC3CC(CC(C3)C1)C2 (centres unmarked) [Compound II]

Further lines, the molecule ahead of its results:

Molecule: CCC(c1nc2ccccc2c(=O)n1C)N(Cc1ccco1)C(=O)Nc1cccc(C(F)(F)F)c1 (centres unmarked) [Compound III]
Modulation of CCX CKR function (agonist or antagonist) (CCX CKR [1]): Compound III (agonist)

Molecule: ELC: chemokine, CCX CKR ligand, also referred to as MIP-3β
Change in protein expression on addition of ligand [2]: only a modest change in protein expression | Effect on protein expression levels [3]: relatively minor effect on protein expression levels | Affinity of CCX CKR for chemokine (CCX CKR [4]): high affinity

B1: SLC: chemokine, CCX CKR ligand, also referred to as 6-Ckine (protein, UniProt O00585 24-134, looked up)
C-C motif chemokine 21: SDGGAQDCCLKYSQRKIPAKVVRSYRKQEPSLGCSIPAILFLPRKRSQAELCADPKELWVQQLMQHLDKTPSPQKPAQGCRKDRGASKTGKKGKGSKGCKRTERSQTPKGP
Change in protein expression on addition of ligand [2]: only a modest change in protein expression | Affinity of CCX CKR for chemokine (CCX CKR [4]): high affinity

B2: TECK: chemokine, CCX CKR ligand (protein, UniProt O15444 24-150, looked up)
C-C motif chemokine 25: QGVFEDCCLAYHYPIGWAVLRRAWTYRIQEVSGSCNLPAAIFYLPKRHRKVCGNPKSREVQRAMKLLDARNKVFAKLHHNTQTFQAGPHAVKKLSSGNSKLSSSKFSNPISSSKRNVSLLISANSGL
Change in protein expression on addition of ligand [2]: only a modest change in protein expression | Effect on cell growth [5]: modest effect on cell growth activity, with perhaps even a slight decrease in cell growth | Affinity of CCX CKR for chemokine (CCX CKR [4]): high affinity
